Results taken from patent publication US20060263345A1, “Butyrylcholinesterase variant polypeptides with increased catalytic efficiency and methods of use” (priority 2003, published 2006).
Residue numbers refer to the chain shown, from its start. Numbers in names are those of the source. Entries after “also recorded” stand apart in the source; their conditions may differ.

B1: Y332S (protein)
chain: EDDIIIATKNGKVRGMNLTVFGGTVTAFLGIPYAQPPLGRLRFKKPQSLTKWSDIWNATKYANSCCQNIDQSFPGFHGSEMWNPNTDLSEDCLYLNVWIPAPKPKNATVLIWIYGGGFQTGTSSLHVYDGKFLARVERVIVVSMNYRVGALGFLALPGNPEAPGNMGLFDQQLALQWVQKNIAAFGGNPKSVTLFGESAGAASVSLHLLSPGSHSLFTRAILQSGSFNAPWAVTSLYEARNRTLNLAKLTGCSRENETEIIKCLRNKDPQEILLNEAFVVPYGTPLSVNFGPTVDGDFLTDMPDILLELGQFKKTQILVGVNKDEGTAFLVSGAPGFSKDNNSIITRKEFQEGLKIFFPGVSEFGKESILFHYTDWVDDQRPENYREALGDVVGDYNFICPALEFTKKFSEWGNNAFFYYFEHRSSKLPWPEWMGVMHGYEIEFVFGLPLERRDNYTKAEEILSRSIVKRWANFAKYGNPNETQNNSTSWPVFKSTEQKYLTLNTESTRIMTKLRAQQCRFWTSFFPKVLEMTGNIDEAEWEWKAGFHRWNNYMMDWKNQFNDYTSKKESCVGL
modifications: Butyrylcholinesterase variant
B2: F227A (protein)
chain: B1 chain with F227A, S332Y
modifications: Butyrylcholinesterase variant
B3: F227S (protein)
chain: B1 chain with F227S, S332Y
modifications: Butyrylcholinesterase variant
B4: F227T (protein)
chain: B1 chain with F227T, S332Y
modifications: Butyrylcholinesterase variant
B5: A328W/V331L (protein)
chain: B1 chain with A328W, V331L, S332Y
modifications: Butyrylcholinesterase variant
B6: A328W/Y332S (protein)
chain: B1 chain with A328W
modifications: Butyrylcholinesterase variant
B7: F227G (protein)
chain: B1 chain with F227G, S332Y
modifications: Butyrylcholinesterase variant
B8: Y332M (protein)
chain: B1 chain with S332M
modifications: Butyrylcholinesterase variant
B9: Y332P (protein)
chain: B1 chain with S332P
modifications: Butyrylcholinesterase variant
B10: F227P (protein)
chain: B1 chain with F227P, S332Y
modifications: Butyrylcholinesterase variant
B11: A328W/Y332M (protein)
chain: B1 chain with A328W, S332M
modifications: Butyrylcholinesterase variant
B12: F227M (protein)
chain: B1 chain with F227M, S332Y
modifications: Butyrylcholinesterase variant
B13: V331L (protein)
chain: B1 chain with V331L, S332Y
modifications: Butyrylcholinesterase variant
B14: A328W/Y332P (protein)
chain: B1 chain with A328W, S332P
modifications: Butyrylcholinesterase variant
B15: F227C (protein)
chain: B1 chain with F227C, S332Y
modifications: Butyrylcholinesterase variant
B16: A328W/S287G/A199S (protein)
chain: B1 chain with A199S, S287G, A328W, S332Y
modifications: Butyrylcholinesterase variant
B17: A328W/S287G/F227A/A199S (protein)
chain: B1 chain with A199S, F227A, S287G, A328W, S332Y
modifications: Butyrylcholinesterase variant
B18: A328W/Y332M/S287G/F227A/A199S (protein)
chain: B1 chain with A199S, F227A, S287G, A328W, S332M
modifications: Butyrylcholinesterase variant
B19: A199S (protein)
chain: B1 chain with A199S, S332Y
modifications: Butyrylcholinesterase variant

test: microtiter isotope tracer [3H]-cocaine hydrolysis assay of immobilized butyrylcholinesterase variants; assay type: biochemical; conditions: compared to human butyrylcholinesterase
From the text: At the conclusion of the isotope tracer assay, an aliquot of the reaction mix is acidified in order to take advantage of the solubility difference between the product and the substrate at pH 3.0. […] Prospect, Ill.) while [3H]-cocaine is not.
The supernatants isolated from each of the butyrylcholinesterase variant library clones contains variable butyrylcholinesterase enzyme concentrations.
At least three approaches are used to either increase the assay sensitivity or the assay signal.
Km values for (−)-cocaine are determined at 37° C. Vmax and Km values are calculated using Sigma Plot (Jandel Scientific, San Rafael, Calif.). The number of active sites of butyrylcholinesterase is determined by the method of residual activity using echothiopate iodide or diisopropyl fluorophosphates as titrants, as described previously by Masson et al., Biochemistry 36: 2266-2277 (1997). […] Purified human butyrylcholinesterase is used as the standard for the ELISA quantitation assay. The catalytic rate constant, kcat, is calculated by dividing Vmax by the concentration of active sites.

Molecule	cocaine hydrolysis activity compared to butyrylcholinesterase (in words)
B1	increased cocaine hydrolysis activity
B2	enhanced cocaine hydrolase activity
B3	enhanced cocaine hydrolase activity
B4	enhanced cocaine hydrolase activity
B5	enhanced cocaine hydrolase activity
B6	enhanced cocaine hydrolase activity
B7	enhanced cocaine hydrolase activity
B8	enhanced cocaine hydrolase activity; also recorded: increased cocaine hydrolysis activity
B9	enhanced cocaine hydrolase activity; also recorded: increased cocaine hydrolysis activity
B10	enhanced cocaine hydrolase activity
B11	enhanced cocaine hydrolase activity
B12	enhanced cocaine hydrolase activity
B13	enhanced cocaine hydrolase activity; also recorded: increased cocaine hydrolysis activity
B14	enhanced cocaine hydrolase activity
B15	enhanced cocaine hydrolase activity
B16	enhanced cocaine hydrolase activity
B17	enhanced cocaine hydrolase activity
B18	enhanced cocaine hydrolase activity
B19	enhanced cocaine hydrolase activity

same assay, conditions: compared to human butyrylcholinesterase SEQ ID NO: 44; approximate values

Molecule	increase in cocaine hydrolysis activity relative to butyrylcholinesterase
B2	four
B3	two
B4	two
B5	sixteen
B6	seven
B7	four
B10	three
B11	twenty-four
B12	one-and-a-half
B14	ten
B15	two
B16	ninety-seven
B17	one-hundred
B18	one-hundred
B19	two-and-a-half

same assay, conditions: compared to human butyrylcholinesterase SEQ ID NO: 44; approximate values; listed as SEQ ID NO: 8

Molecule	increase in cocaine hydrolysis activity relative to butyrylcholinesterase
B6	eight

same assay, conditions: compared to human butyrylcholinesterase; listed as SEQ ID NO: 20

Molecule	cocaine hydrolysis activity compared to butyrylcholinesterase (in words)
B1	increased cocaine hydrolysis activity

same assay, conditions: compared to human butyrylcholinesterase; listed as SEQ ID NO: 22

Molecule	cocaine hydrolysis activity compared to butyrylcholinesterase (in words)
B8	increased cocaine hydrolysis activity

same assay, conditions: compared to human butyrylcholinesterase; listed as SEQ ID NO: 24

Molecule	cocaine hydrolysis activity compared to butyrylcholinesterase (in words)
B9	increased cocaine hydrolysis activity

same assay, conditions: compared to human butyrylcholinesterase; listed as SEQ ID NO: 26

Molecule	cocaine hydrolysis activity compared to butyrylcholinesterase (in words)
B13	increased cocaine hydrolysis activity

same assay, conditions: compared to human butyrylcholinesterase; listed as Y322S

Molecule	cocaine hydrolysis activity compared to butyrylcholinesterase (in words)
B1	enhanced cocaine hydrolase activity

same assay, conditions: relative to wild-type = 1; catalytic efficiency (Vmax/Km), [3H]-cocaine microtiter assay

Molecule	Relative Activity of butyrylcholinesterase variants (WT = 1) with enhanced cocaine hydrolase activity
B2	4.1
B3	2.3
B4	1.9
B5	16
B6	8
B7	4.0
B10	2.9
B11	24
B12	1.4
B14	10
B15	1.9
B16	97
B17	100
B18	100
B19	2.5
